What was measured:
diabetogenic mice = test: In vivo delivery efficiency test: plasma glucose levels in diabetogenic mice; conditions: 0.2 IU insulin, subcutaneous injection
Protocol: In this experiment, male C57BL/6 mice (7 to 8 week-old, OrientBio) were used. Animal experiments were conducted according to the Guide for the Care and Use of Laboratory Animals by the Severance Hospital Ethics Committee (Reference No.: 09-013, College of Pharmacy, Yonsei University, Korea). […] For successful diabetes induction, the blood glucose concentrations of all the mice were measured using a OneTouch Verio IQ system. […] Diabetogenic mice were divided into four groups, as follows: (a) an untreated group (a negative control); (b) a subcutaneously injected group (0.2 IU, a positive control); […] The mice were fasted during an experiment period, and freely fed with water. […] After 6 hours of the treatment, blood samples (0.1 ml) were taken from wounded tail vein areas every one hour. […] The plasma glucose levels per hour in each group were measured using a glucose CII-Test kit. The plasma insulin concentrations were measured using an insulin ELISA kit (ALPCO). To examine the in vivo delivery efficiency by DMN patch and subcutaneous injection (SC) methods and through the microlancer, insulin was administered to diabetogenic mice using each of the methods, and changes in blood glucose levels were measured. […] Insulin was administered using each of the methods, and changes in plasma glucose levels in the diabetogenic mice were measured after the elapse of 6 hours (see FIG. 17B).

[1] = In vivo delivery efficiency test: plasma insulin concentrations in diabetogenic mice; conditions: 0.2 IU insulin, subcutaneous injection
Protocol: In this experiment, male C57BL/6 mice (7 to 8 week-old, OrientBio) were used. Animal experiments were conducted according to the Guide for the Care and Use of Laboratory Animals by the Severance Hospital Ethics Committee (Reference No.: 09-013, College of Pharmacy, Yonsei University, Korea). The mice were anesthetized with Avertin (2,2,2-tribromoethanol, Sigma-Aldrich), and 50 mg/kg of streptozotocin in a sodium citrate buffer (pH=4.5) was intravenously injected into the mice to induce diabetes. For successful diabetes induction, the blood glucose concentrations of all the mice were measured using a OneTouch Verio IQ system.
Diabetogenic mice were divided into four groups, as follows: (a) an untreated group (a negative control); (b) a subcutaneously injected group (0.2 IU, a positive control); (c) a patch-treated group (0.2 IU insulin-loaded DMNs); and (d) a microlancer-treated group (0.2 IU insulin-loaded DMNs) (n=5 per group). The mice were fasted during an experiment period, and freely fed with water. The back regions of the mice were shaved using an electric shaver, and 0.2 IU of insulin was administered by means of a DMN patch through a microlancer or by subcutaneous injection. […] The plasma glucose levels per hour in each group were measured using a glucose CII-Test kit. The plasma insulin concentrations were measured using an insulin ELISA kit (ALPCO).

## insulin: Humalog insulin purchased from Eli Lilly; 0.2 IU subcutaneously injected as positive control
Diabetogenic mice
  time of lowest blood glucose level compared to insertion through the microlancer: an hour earlier
[1]
  maximum plasma insulin concentration: 156 μIU/ml
  time of peaks for the plasma insulin concentration: an hour
